Biological target: DNA-PKcs;Ku70;Ku80 (Homo sapiens (HeLa cells);Homo …, UniProt P78527;P12956;P13010 1-4128;1-609;1-732, ||)

B1: 40N (nicked 40 bp DNA) (dsDNA)
DNA 1: GCATGCTCTACTGCTTCGATATCG
DNA 2: AAGCAGTAGAGCATGC
DNA 3: GCATGCTCTACTGCTTCGATATCG
DNA 4: AAGCAGTAGAGCATGC
modifications: none stated
Question: Does B1 bind?
Answer: Result: binds

— publication PMC7897279
